In publication PMC2879449 (Biochemistry, 2010):

Biological target: the molecule itself
Assay: crystal structure

B1: WlbB, an N-acetyltransferase from Bordetella petrii (enzyme, UniProt A9IH93 1-190, looked up)
chain: MATIHPTAIVDEGARIGAHSRIWHWVHICGGAEIGEGCSLGQNVFVGNRVRIGNRVKIQNNVSVYDNVFLEDDVFCGPSMVFTNVYNPRAAIERKSEYRDTIVRQGATLGANCTVVCGATIGRYAFVGAGAVVNKDVPDFALVVGVPARQIGWMSRHGEQLDLPLRGNAEATCPHTGERYILTDGVCRLA
  stoichiometry N: 3
